Data taken from the supplement of paper PMC10567573.

B1: CPXM2 (parent)
chain: EILGCPLPDPNNYYHRRNEMTTTD

Variants of: B1
Experiment: protein stability index of a GFP-peptide fusion (GPS, HEK-293T) (PSI 1-6); higher = more stable
Details: c terminus: a fixed tail appended
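Note: lentivirally expressed fusions sorted by FACS into six bins by GFP to DsRed ratio, PSI derived from sequencing read proportions per bin multiplied by bin number.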

Variant	protein stability index
EILGCPLPDPNNYYHRRNEMTTKD	3.46
EILGCPLPDPNNYYHRRNEMTTWD	2.48
EILGCPLPDPNNYYHRRNEMTTRD	3.37
EILGCPLPDPNNYYHRRNEMTTND	3.48
EILGCPLPDPNNYYHRRNEMTTYD	3.13
EILGCPLPDPNNYYHRRNEMTTED	4.3
EILGCKLPDPNNYYHRRNEMTTTD	2.76
EILGCNLPDPNNYYHRRNEMTTTD	2.8
EILGCRLPDPNNYYHRRNEMTTTD	2.84
EILGCQLPDPNNYYHRRNEMTTTD	2.92
EILGCALPDPNNYYHRRNEMTTTD	3.16
EILGCGLPDPNNYYHRRNEMTTTD	2.87
EILGCELPDPNNYYHRRNEMTTTD	3.58
EILGCPLPDPNRYYHRRNEMTTTD	3.35
EILGCPLPDPNKYYHRRNEMTTTD	2.77
EILGCPLPDPNDYYHRRNEMTTTD	4.07
EILGCPLPDPNHYYHRRNEMTTTD	3.36
EILGCPLPDPNVYYHRRNEMTTTD	3.17
EILGCPLPDPNTYYHRRNEMTTTD	3.17
EILGCPLPDPNIYYHRRNEMTTTD	3.05
EILGCPLPDPNAYYHRRNEMTTTD	3.67
EILGCPLPDPNLYYHRRNEMTTTD	3.42
EILGCPLPDPNWYYHRRNEMTTTD	2.79
EILGCPLPDPNNYYHRRNCMTTTD	2.8

Variant	protein stability index
EILGCPLPDPNNYYHRRNIMTTTD	2.19
EILGCPLPDPNNYYHRRNLMTTTD	2.22
EILGCPLPDPNNYYHRRNPMTTTD	2.86
EILGCPLPDPNNYYHRRNMMTTTD	2.48
EILGCPLPDPNNYYHRRNWMTTTD	2.09
EILGCPLPDPNNYYHRRNSMTTTD	3.46
EILGCPLPDPNNYYHRRNHMTTTD	3.1
EILGCPLPDPNNYYHRRNAMTTTD	2.89
EILGCPLPDPNNYYHRRNRMTTTD	3.16
EILGCPLPDPMNYYHRRNEMTTTD	3.21
EILGCPLPDPENYYHRRNEMTTTD	4.07
EILGCPLPDPPNYYHRRNEMTTTD	3.84
EILGCPLPDPWNYYHRRNEMTTTD	2.29
EILGCPLPDPTNYYHRRNEMTTTD	3.48
EILGCPLPDPGNYYHRRNEMTTTD	3.15
EILGCPLPDPQNYYHRRNEMTTTD	3.73
EILGCPLPDPYNYYHRRNEMTTTD	3.13
EILGCPLPDPVNYYHRRNEMTTTD	3.38
EILGCPLPDPSNYYHRRNEMTTTD	3.16
EILGCPLPDPNNYYHSRNEMTTTD	4.14
EILGCPLPDPNNYYHPRNEMTTTD	3.55
EILGCPLPDPNNYYHCRNEMTTTD	3.15
EILGCPLPDPNNYYHHRNEMTTTD	3.56
EILGCPLPDPNNYYHGRNEMTTTD	4

Variant	protein stability index
EILGCPLPDPNNYYHMRNEMTTTD	3.48
EILGGPLPDPNNYYHRRNEMTTTD	3.76
EILGPPLPDPNNYYHRRNEMTTTD	4.42
EILGNPLPDPNNYYHRRNEMTTTD	3.61
EILGEPLPDPNNYYHRRNEMTTTD	4.07
EILGAPLPDPNNYYHRRNEMTTTD	3.79
EILGVPLPDPNNYYHRRNEMTTTD	3.41
EILGRPLPDPNNYYHRRNEMTTTD	3.54
EILGHPLPDPNNYYHRRNEMTTTD	3.91
EILGYPLPDPNNYYHRRNEMTTTD	2.96
EILGQPLPDPNNYYHRRNEMTTTD	3.85
EILGCPLPTPNNYYHRRNEMTTTD	3.25
EILGCPLPYPNNYYHRRNEMTTTD	2.75
EILGCPLPNPNNYYHRRNEMTTTD	3.18
EILGCPLPFPNNYYHRRNEMTTTD	2.68
EILGCPLPPPNNYYHRRNEMTTTD	3.26
EILGCPLPSPNNYYHRRNEMTTTD	3.24
EILGCPLPCPNNYYHRRNEMTTTD	3.17
EILGCPLPDPNNDYHRRNEMTTTD	4.43
EILGCPLPDPNNMYHRRNEMTTTD	4
EILGCPLPDYNNYYHRRNEMTTTD	2.91
EILGCPLPDWNNYYHRRNEMTTTD	2.72
EILGCPLPDENNYYHRRNEMTTTD	4.08
EILGCPLPDINNYYHRRNEMTTTD	3.09

Variant	protein stability index
EILGCPLPDNNNYYHRRNEMTTTD	3.37
EILGCPLPDHNNYYHRRNEMTTTD	3.66
EILHCPLPDPNNYYHRRNEMTTTD	3.71
EILVCPLPDPNNYYHRRNEMTTTD	3.41
EILMCPLPDPNNYYHRRNEMTTTD	3.15
EILECPLPDPNNYYHRRNEMTTTD	4.09
EILFCPLPDPNNYYHRRNEMTTTD	2.69
EILDCPLPDPNNYYHRRNEMTTTD	3.96
EILNCPLPDPNNYYHRRNEMTTTD	2.93
EILCCPLPDPNNYYHRRNEMTTTD	3.47
EILKCPLPDPNNYYHRRNEMTTTD	3.39
EILQCPLPDPNNYYHRRNEMTTTD	3.5
EILTCPLPDPNNYYHRRNEMTTTD	3.49
EILACPLPDPNNYYHRRNEMTTTD	3.35
EILGCPLPDPNNYYHRRLEMTTTD	2.51
EILGCPLPDPNNYYHRRSEMTTTD	3.26
EILGCPLPDPNNYYHRRMEMTTTD	2.91
EILGCPLPDPNNYYHRRYEMTTTD	2.67
EILGCPNPDPNNYYHRRNEMTTTD	4.13
EILGCPMPDPNNYYHRRNEMTTTD	3.59
EILGCPFPDPNNYYHRRNEMTTTD	3.38
EILGCPYPDPNNYYHRRNEMTTTD	3.61
